From patent US20190060430A1 (published 2019)
Values belong to the binder of their own block, whether it stands above or below them.

Assays:
Assay in all cases: cytokine release
[1] = target: T1, TPTE peptide on HLA-DRB1*13:01 (human)
T1 peptide: KLIRRRVSENKRRYT

[2] = target: T2, TPTE peptide on HLA-DRB1*13:01 (human)
T2 peptide: KHFIIYSIPRYVRDLKIQI

[3] = target: T3, TPTE peptide on HLA-DRB1*13:01 (human)
T3 peptide: RRVSENKRRYTRDGF

[4] = target: T4, TPTE peptide on HLA-DRB1*15:01 (human)
T4 peptide: DSKLYIPLEYRSISLAIAL

[5] = target: T5, TPTE peptide on HLA-DRB1*07:01 (human)
T5 peptide: VFVERRQQYFSDLFN

[6] = target: T6, TPTE peptide on HLA-DRB1*07:01 (human)
T6 peptide: YIPLEYRSISLAIAL

[7] = target: T7, TPTE peptide on HLA-DRB1*15:01 (human)
T7 peptide: ILFIKHFIIYSIPRY

[8] = target: T8, TPTE peptide on HLA-DRB1*15:01 (human)
T8 peptide: YVAYFAQVKHLYNWNLPPR

[9] = target: T9, TPTE peptide on HLA-DRB1*15:01 (human)
T9 peptide: RRQQYFSDLFNILDT

[10] = target: T10, TPTE peptide on HLA-DRB1*15:01 (human)
T10 peptide: LFNILDTAIIVILLL

[11] = target: T11, TPTE peptide on HLA-DRB1*15:01 (human)
T11 peptide: DVVYIFFDIKLLRNI

[12] = target: T12, TPTE peptide on HLA-DRB1*15:01 (human)
T12 peptide: IKKIVHSIVSSFAFG

[13] = target: T13, TPTE peptide on HLA-DQA1*01:03 / HLA-DQB1*06:03 (human)
T13 peptide: VLDNITTDKILIDVF

[14] = target: T14, TPTE peptide on HLA-DQA1*01:03 / HLA-DQB1*06:02 (human)
T14 peptide: VLDNITTDKILIDVF

[15] = target: T15, TPTE peptide on HLA-DQA1*01:02 / HLA-DQB1*06:02 (human)
T15 peptide: VLDNITTDKILIDVF

[16] = target: T16, TPTE peptide on HLA-DRB1*13:01 (human)
T16 peptide: VLLRVFVERRQQYFS

[17] = target: T17, TPTE peptide on HLA-B*07:02 (human)
T17 peptide: PRWTHLLRL

[18] = target: T18, TPTE peptide on HLA-DRB1*13:01 (human)
T18 peptide: PPRRILFIKHFIIYS

binding result [8]: recognises
B7: TCRCD4-TPT#49 (TCR, V domains shown)
Valpha: AQTVTQSQPEMSVQEAETVTLSCTYDTSENNYYLFWYKQPPSRQMILVIRQEAYKQQNATENRFSVNFQKAAKSFSLKISDSQLGDTAMYFCAFMKNTGNQFYFGTGTSLTVIP
Vbeta: DGGITQSPKYLFRKEGQNVTLSCEQNLNHDAMYWYRQDPGQGLRLIYYSQIVNDFQKGDIAEGYSVSREKKESFPLTVTSAQKNPTAFYLCASRRLDGLGIGELFFGEGSRLTVL

binding result [9]: recognises
binding result [10]: recognises
binding result [11]: recognises
B8: TCRCD4-TPT#79 (TCR, V domains shown)
Valpha: AQTVTQSQPEMSVQEAETVTLSCTYDTSESDYYLFWYKQPPSRQMILVIRQEAYKQQNATENRFSVNFQKAAKSFSLKISDSQLGDAAMYFCAYRSYNAGNMLTFGGGTRLMVKP
Vbeta: KAGVTQTPRYLIKTRGQQVTLSCSPISGHRSVSWYQQTPGQGLQFLFEYFSETQRNKGNFPGRFSGRQFSNSRSEMNVSTLELGDSALYLCASSDTSGGGGEQFFGPGTRLTVL

binding result [12]: recognises
B9: TCRCD4-TPT#57 (TCR, V domains shown)
Valpha: AQSVSQHNHHVILSEAASLELGCNYSYGGTVNLFWYVQYPGQHLQLLLKYFSGDPLVKGIKGFEAEFIKSKFSFNLRKPSVQWSDTAEYFCAVNARDNAGKSTFGDGTTLTVKP
Vbeta: KAGVTQTPRYLIKTRGQQVTLSCSPISGHRSVSWYQQTPGQGLQFLFEYFSETQRNKGNFPGRFSGRQFSNSRSEMNVSTLELGDSALYLCASRGEPSSYEQYFGPGTRLTVT

binding result [13]: recognises
binding result [14]: recognises
binding result [15]: recognises
B10: TCRCD4-TPT#76 (TCR, V domains shown)
Valpha: AQSVTQPDIHITVSEGASLELRCNYSYGATPYLFWYVQSPGQGLQLLLKYFSGDTLVQGIKGFEAEFKRSQSSFNLRKPSVHWSDAAEYFCAVGAFTRGGSEKLVFGKGMKLTVNP
Vbeta: DGGITQSPKYLFRKEGQNVTLSCEQNLNHDAMYWYRQDPGQGLRLIYYSQIVNDFQKGDIAEGYSVSREKKESFPLTVTSAQKNPTAFYLCATGSYVGYEQYFGPGTRLTVT

binding result [16]: recognises
B11: TCRCD4-TPT#59 (TCR, V domains shown)
Valpha: ELKVEQNPLFLSMQEGKNYTIYCNYSTTSDRLYWYRQDPGKSLESLFVLLSNGAVKQEGRLMASLDTKARLSTLHITAAVHDLSATYFCAVDNEFYFGTGTSLTVIP
Vbeta: DTGVSQDPRHKITKRGQNVTFRCDPISEHNRLYWYRQTLGQGPEFLTYFQNEAQLEKSRLLSDRFSAERPKGSFSTLEIQRTEQGDSAMYLCASSLLGAGNIQYFGAGTRLSVL

binding result [17]: recognises
B12: TCRCD8-TPT#35/2 (TCR, V domains shown)
Valpha: AQKVTQAQTEISVVEKEDVTLDCVYETRDTTYYLFWYKQPPSGELVFLIRRNSFDEQNEISGRYSWNFQKSTSSFNFTITASQVVDSAVYFCALIEAAAGNKLTFGGGTRVLVKP
Vbeta: NAGVTQTPKFRVLKTGQSMTLLCAQDMNHEYMYWYRQDPGMGLRLIHYSVGEGTTAKGEVPDGYNVSRLKKQNFLLGLESAAPSQTSVYFCASSDGYGYTFGSGTRLTVV

binding result [18]: recognises
B13: TCRCD4-TPT#82 (TCR, V domains shown)
Valpha: AQTVTQSQPEMSVQEAETVTLSCTYDTSESDYYLFWYKQPPSRQMILVIRQEAYKQQNATENRFSVNFQKAAKSFSLKISDSQLGDAAMYFCAYRSAGLLLTFGGGTRLMVKP
Vbeta: DGGITQSPKYLFRKEGQNVTLSCEQNLNHDAMYWYRQDPGQGLRLIYYSQIVNDFQKGDIAEGYSVSREKKESFPLTVTSAQKNPTAFYLCASSKAPGQGNTQGWEQYFGPGTRLTVT

More lines, now with the values behind:

B1: TCRCD4-TPT#51 (TCR, V domains shown)
Valpha: GENVEQHPSTLSVQEGDSAVIKCTYSDSASNYFPWYKQELGKRPQLIIDIRSNVGEKKDQRIAVTLNKTAKHFSLHITETQPEDSAVYFCAALSGGSNYKLTFGKGTLLTVNP
Vbeta: EAGVTQFPSHSVIEKGQTVTLRCDPISGHDNLYWYRRVMGKEIKFLLHFVKESKQDESGMPNNRFLAERTGGTYSTLKVQPAELEDSGVYFCASSQQENTEAFFGQGTRLTVV
binding result [1]: recognises

B2: TCRCD4-TPT#77 (TCR, V domains shown)
Valpha: AQKITQTQPGMFVQEKEAVTLDCTYDTSDPSYGLFWYKQPSSGEMIFLIYQGSYDQQNATEGRYSLNFQKARKSANLVISASQLGDSAMYFCAMREGLAKTSYDKVIFGPGTSLSVIP
Vbeta: GAVVSQHPSWVICKSGTSVKIECRSLDFQATTMFWYRQFPKQSLMLMATSNEGSKATYEQGVEKDKFLINHASLTLSTLTVTSAHPEDSSFYICSAPGTGHSAGELFFGEGSRLTVL
binding result [2]: recognises

B3: TCRCD4-TPT#78 (TCR, V domains shown)
Valpha: AQSVTQLDSQVPVFEEAPVELRCNYSSSVSVYLFWYVQYPNQGLQLLLKYLSGSTLVKGINGFEAEFNKSQTSFHLRKPSVHISDTAEYFCAVGPNNFNKFYFGSGTKLNVKP
Vbeta: EPEVTQTPSHQVTQMGQEVILRCVPISNHLYFYWYRQILGQKVEFLVSFYNNEISEKSEIFDDQFSVERPDGSNFTLKIRSTKLEDSAMYFCASSPVGGYNSPLHFGNGTRLTVT
binding result [3]: recognises

B4: TCRCD4-TPT#52 (TCR, V domains shown)
Valpha: AQSVTQPDIHITVSEGASLELRCNYSYGATPYLFWYVQSPGQGLQLLLKYFSGDTLVQGIKGFEAEFKRSQSSFNLRKPSVHWSDAAEYFCAVGAQGAQKLVFGQGTRLTINP
Vbeta: NAGVTQTPKFQVLKTGQSMTLQCAQDMNHNSMYWYRQDPGMGLRLIYYSASEGTTDKGEVPNGYNVSRLNKREFSLRLESAAPSQTSVYFCASSEAGGSSFEQYFGPGTRLTVT
binding result [4]: recognises

B5: TCRCD4-TPT#9 (TCR, V domains shown)
Valpha: QQQVKQSPQSLIVQKGGISIINCAYENTAFDYFPWYQQFPGKGPALLIAIRPDVSEKKEGRFTISFNKSAKQFSLHIMDSQPGDSATYFCAASFYTGNQFYFGTGTSLTVIP
Vbeta: DTAVSQTPKYLVTQMGNDKSIKCEQNLGHDTMYWYKQDSKKFLKIMFSYNNKELIINETVPNRFSPKSPDKAHLNLHINSLELGDSAVYFCASSQEALGGGYGYTFGSGTRLTVV
binding result [5]: recognises
binding result [6]: recognises

B6: TCRCD4-TPT#45 (TCR, V domains shown)
Valpha: GESVGLHLPTLSVQEGDNSIINCAYSNSASDYFIWYKQESGKGPQFIIDIRSNMDKRQGQRVTVLLNKTVKHLSLQIAATQPGDSAVYFCAETRQGGKLIFGQGTELSVKP
Vbeta: GAVVSQHPSWVICKSGTSVKIECRSLDFQATTMFWYRQFPKQSLMLMATSNEGSKATYEQGVEKDKFLINHASLTLSTLTVTSAHPEDSSFYICSAPPGVTVRAYGYTFGSGTRLTVV
binding result [7]: recognises
